Non-standard residues stand in square brackets, D forms with d. *: point of attachment. Biotin = O=C1N[C@H]2[C@H](CS[C@H]2CCCCC(=O)*)N1; Ahx = NCCCCCC(=O)O; βAla = NCCC(=O)O
How the values were obtained:
[1] = target: T1, HIV‐1 envelope glycoprotein gp120, strain HxBc2 (HIV-1 strain HxBc2, UniProt P04578 33-511); test: ELISA; gp120 HxBc2 coated (1.4 μg/mL, 0.1 M phosphate buffer pH 7.4, overnight 4°C), blocked with Ficoll 400; biotinylated peptide in serial threefold dilutions from 400 nM, overnight 4°C; detected with anti-biotin peroxidase; details: both partners purified
[2] = target: T1, HIV‐1 envelope glycoprotein gp120, …; test: cell-based or functional assay

Binder | EC50 [1] [nM] | neutralisation of HIV-1 NL4-3 infection, SEAP reporter CEMx174 cells, IC50 [2] [nM]
Ac-GYKFSNFVIHWG[βAla]G[Ahx]GK(Biotin)G[Ahx]SVGPYSWDDSPQDNYMDS-NH2 (not fully specified; printed as Ac‐GYKFSNFVIHW‐GBGXG‐K*‐GX‐SVGPYSWDDSPQDNYMDS‐NH_2_) [H1H3s‐R28K] | 7.86 ± 1.35 | –
Ac-GYRFSNFVIHWG[βAla]G[Ahx]GK(Biotin)G[Ahx]SVGPYSWDDSPQDNYMDS-NH2 (not fully specified; printed as Ac‐GYRFSNFVIHW‐GBGXG‐K*‐GX‐SVGPYSWDDSPQDNYMDS‐NH_2_) [H1H3s] | 6.46 ± 1.5 | 6300
Ac-G[dY][dR][dF][dS][dN][dF][dV][dI][dH][dW]G[βAla]G[Ahx]G[dK](Biotin)G[Ahx][dS][dV]G[dP][dY][dS][dW][dD][dD][dS][dP][dQ][dD][dN][dY][dM][dD][dS]-NH2 (SMILES CC[C@@H](C)[C@@H](NC(=O)[C@H](NC(=O)[C@@H](Cc1ccccc1)NC(=O)[C@@H](CC(N)=O)NC(=O)[C@@H](CO)NC(=O)[C@@H](Cc1ccccc1)NC(=O)[C@@H](CCCNC(=N)N)NC(=O)[C@@H](Cc1ccc(O)cc1)NC(=O)CNC(C)=O)C(C)C)C(=O)N[C@H](Cc1c[nH]cn1)C(=O)N[C@H](Cc1c[nH]c2ccccc12)C(=O)NCC(=O)NCCC(=O)NCC(=O)NCCCCCC(=O)NCC(=O)N[C@H](CCCCNC(=O)CCCC[C@@H]1SC[C@@H]2NC(=O)N[C@@H]21)C(=O)NCC(=O)NCCCCCC(=O)N[C@H](CO)C(=O)N[C@@H](C(=O)NCC(=O)N1CCC[C@@H]1C(=O)N[C@H](Cc1ccc(O)cc1)C(=O)N[C@H](CO)C(=O)N[C@H](Cc1c[nH]c2ccccc12)C(=O)N[C@H](CC(=O)O)C(=O)N[C@H](CC(=O)O)C(=O)N[C@H](CO)C(=O)N1CCC[C@@H]1C(=O)N[C@H](CCC(N)=O)C(=O)N[C@H](CC(=O)O)C(=O)N[C@H](CC(N)=O)C(=O)N[C@H](Cc1ccc(O)cc1)C(=O)N[C@H](CCSC)C(=O)N[C@H](CC(=O)O)C(=O)N[C@H](CO)C(N)=O)C(C)C) [H1H3s‐allD] | – | 1900
